{
  "source": "paper PMC5101480",
  "about": "(Scientific Reports, 2016)",
  "key": {"[1]": {"molecular_target": "T1, TPR domain of SGTA (SGTA_TPR) (Homo sapiens, UniProt O43765)", "T1 construct": "thioredoxin A (TxA) fusion (N, cleaved yes); hexahistidine tag (N, cleaved yes); made in house; host or cells: E. coli BL21(DE3) Rosetta", "T1 sequence (O43765 84-211)": "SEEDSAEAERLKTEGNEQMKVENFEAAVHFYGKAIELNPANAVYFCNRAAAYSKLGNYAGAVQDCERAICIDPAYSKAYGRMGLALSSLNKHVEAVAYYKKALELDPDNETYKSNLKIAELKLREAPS", "experiment": "Solution NMR CSP titration of unlabelled ligand into 15N-labelled SGTA_TPR", "assay_type": "binding", "settings": "pH 6.0, 25 °C", "experimental": "In order to understand molecular details underlying the interaction between SGTA and Rpn13, solution NMR studies were carried out on excised domains of SGTA and Rpn13 guided by earlier mapping studies. Reciprocal chemical shift perturbation (CSP) experiments were performed by titrating unlabelled Rpn13 C-terminal domain (residues 260–407; hereafter described as Rpn13_260-407) into ^15N-labelled TPR domain of SGTA (residues 84–211; hereafter referred to as SGTA_TPR) and vice versa. Assignments of backbone amide resonances were obtained from the BMRB (accession numbers 5709 and 17286, for SGTA_TPR and Rpn13_260-407, respectively). The ^1H-^15N HSQC spectra of both SGTA_TPR and Rpn13_260-407 show binding in a fast exchange regimen (Figs 1A and 2A). […] Binding was further confirmed by size-exclusion chromatography (SEC) and isothermal titration calorimetry (ITC) (Fig. 1C,D). […] ITC experiments yield a dissociation constant of 16.1 ± 1.4 μM in keeping with the value obtained from NMR.\n(§1) Protein samples at concentrations between 300 μM and 1 mM were prepared in 10% D2O (Sigma Aldrich), 10 mM potassium phosphate pH 6.0, 100 mM NaCl and 250 μM TCEP buffer (with 10 μM DSS for proton chemical shift referencing). All NMR experiments were acquired in 5 mm NMR tubes at 25 °C on 500 MHz and 700 MHz Bruker Avance spectrometers equipped with cryoprobes and operated by the TopSpin 3.1 software package. All NMR spectra were processed with TopSpin and analysed with CcpNMR Analysis[35]. Proteins used for NMR titrations were dialysed overnight against the same buffer (10 mM potassium phosphate pH 6.0, 100 mM NaCl and 250 μM TCEP) and mixed in different molar ratios, with the concentration of the labelled protein maintained constant. ^1H-^15N HSQC experiments were recorded for each titration point at 25 °C. Chemical shift perturbation (CSP) values were calculated for each amide signal using the following formula: […]\nwhere Δδ1H and Δδ15N are the chemical shift differences for the same amide in its free and bound state (δfree−δbound) and for proton and nitrogen chemical shift values respectively. […]"}, "[2]": {"system": "TPR domain of SGTA (SGTA_TPR, residues 84–211)", "experiment": "Solution NMR CSP titration of unlabelled SGTA_TPR into 15N-labelled Rpn13_260-407", "assay_type": "binding, human", "settings": "15N-labelled Rpn13_260-407, SGTA_TPR to 1:1; pH 6.0, 25 °C", "experimental": "In order to understand molecular details underlying the interaction between SGTA and Rpn13, solution NMR studies were carried out on excised domains of SGTA and Rpn13 guided by earlier mapping studies. Reciprocal chemical shift perturbation (CSP) experiments were performed by titrating unlabelled Rpn13 C-terminal domain (residues 260–407; hereafter described as Rpn13_260-407) into ^15N-labelled TPR domain of SGTA (residues 84–211; hereafter referred to as SGTA_TPR) and vice versa. Assignments of backbone amide resonances were obtained from the BMRB (accession numbers 5709 and 17286, for SGTA_TPR and Rpn13_260-407, respectively). […]\nas §1, with “All NMR experiments were acquired in 5 mm NMR tubes at 25 °C on 500 MHz and 700 MHz Bruker Avance spectrometers equipped with cryoprobes and operated by the TopSpin 3.1 software package.” left out"}, "[3]": {"system": "K160E/R164E double mutant SGTA_TPR", "experiment": "Size exclusion chromatography (SEC) complex formation with K160E/R164E double mutant SGTA_TPR", "assay_type": "binding, human", "settings": "Rpn13_260-407 up to 3-fold molar excess", "description": "The ‘two-carboxylate clamp’ mode of binding is a well-characterised mechanism of molecular recognition by TPR domains in the context of their binding to the conserved C-terminal IEEVD and MEEVD motifs of Hsp70 and Hsp90 chaperones, respectively. It is known that conserved residues present on the concave surface of the TPR domain form a positively charged region within this groove that clamp, the two carboxylate groups of the terminal aspartate (Fig. 3D). As the Rpn13 amino acid sequence ends with an aspartate, and given the C-terminal DMSLD peptide being necessary and sufficient for this interaction, the possibility of a two-carboxylate clamp mechanism was explored by site-directed mutagenesis experiments. […] Therefore a K160E/R164E double mutant version of SGTA was used in SEC and NMR experiments to understand the effect it had on Rpn13_260-407 binding.\nGene fragments encoding human Rpn13 (260–407 and 260–402) and SGTA_TPR domain (84–211) were PCR amplified from cDNA (Life Technologies) and cloned into the BamHI/XhoI site of a modified pET28 vector which encodes an N-terminal thioredoxine A (TxA) fusion protein followed by a hexahistidine tag and tobacco etch virus (TEV) protease cleavage site. […]"}, "[4]": {"experiment": "1H-15N heteronuclear NOE of Rpn13_260-407, free and SGTA_TPR-bound", "parameters": "species or system human", "settings": "350 μM 15N-labelled Rpn13_260-407, 700 MHz, four second saturation transfer or control period", "experimental": "To study the dynamic properties of free and SGTA_TPR-bound Rpn13_260-407, ^1H- ^15N heteronuclear NOE experiments were carried out with a four second saturation transfer or control period. […] The average heteronuclear NOE enhancement value for Rpn13 residues Asp 403 to Asp 407 in the free and SGTA_TPR-bound state were −0.71 and 0.48, respectively, thus indicating the transition of the Rpn13 extreme C-terminal pentapeptide region to a more ordered state upon binding to SGTA_TPR (Fig. 2C).\nwhere Δδ1H and Δδ15N are the chemical shift differences for the same amide in its free and bound state (δfree−δbound) and for proton and nitrogen chemical shift values respectively. CSP results were mapped on to the SGTA_TPR crystal structure (PDB code 2VYI) using PyMOL. ^1H-^15N heteronuclear NOE experiments were performed with a four second saturation transfer or control period at 700 MHz. Sample concentrations of ^15N-labelled Rpn13_260-407 were maintained at 350 μM both in its free and bound state with unlabelled SGTA_TPR at a 1:1 molar ratio."}},
  "note": "Entries after “also recorded” stand apart in the source; their conditions may differ.",
  "data": [
    {"molecule": "Rpn13_260-407: Rpn13 C-terminal domain (residues 260–407), human, expressed in E. coli (protein, left off: thioredoxin A (TxA), N-terminal, cleaved | His6, N-terminal, cleaved, Rpn13 C-terminal domain (residues 260–407), human, expressed in E. coli) QPIQLSDLQSILATMNVPAGPAGGQQVDLASVLTPEIMAPILANADVQERLLPYLPSGESLPQTADEIQNTLTSPQFQQALGMFSAALASGQLGPLMCQFGLPAEAVEAANKGDVEAFAKAMQNNAKPEQKEGDTKDKKDEEEDMSLD", "values": [
      {"measurement": "effect on SGTA_TPR helix-7 residues 203–209 amide signals", "setting": "[1]; 3-fold molar excess of unlabelled ligand", "value": "perturbed"},
      {"measurement": "CSP of SGTA_TPR backbone amide signals, result in words", "setting": "[1]; unlabelled ligand into 15N-labelled SGTA_TPR, Rpn13_260-407 up to 8 equivalents, Rpn13_260-402 up to 6-fold molar excess", "value": "Widespread perturbation of backbone amide signals; also recorded: cannot be fitted to a meaningful binding isotherm"},
      {"measurement": "CSP of Rpn13_260-407 backbone amides on binding SGTA_TPR", "setting": "[2]", "value": "only extreme C-terminal residues Met 404, Ser 405, Leu 406 and Asp 407 are perturbed"},
      {"measurement": "SEC complex formation with K160E/R164E SGTA_TPR", "setting": "[3]", "value": "does not co-elute; also recorded: no evidence of complex formation"},
      {"measurement": "average heteronuclear NOE enhancement value, residues Asp 403 to Asp 407", "setting": "[4]; SGTA_TPR-bound state, 1:1 molar ratio", "value": 0.48},
      {"measurement": "average heteronuclear NOE enhancement value, residues Asp 403 to Asp 407", "setting": "[4]; free state", "value": "−0.71"}
    ]}
  ]
}
